Laboratory results published in US20250074982A1 (CITY OF HOPE, published 2025).

Biological target: CS1 on MM.1S multiple myeloma cells (human, UniProt Q9NQ25 23-335)
Experiment: cell-based or functional assay

- IFN-γ and TNF-α positive cells detected by intracellular cytokine staining: > 2 fold
B1: CS1-dbBiTE (anti-CS1-huOKT3 dual specific bivalent T-cell engager: intact elotuzumab clicked to intact humanized OKT3 at their reduced hinge regions) (bispecific antibody, human IgG1, kappa)
heavy: not shown
light: DIQMTQSPSSLSASVGDRVTITCKASQDVGIAVAWYQQKPGKVPKLLIYWASTRHTGVPDRFSGSGSGTDFTLTISSLQPEDVATYYCQQYSSYPYTFGQGTKVEIKRTVAAPSVFIFPPSDEQLKSGTASVVCLLNNFYPREAKVQWKVDNALQSGNSQESVTEQDSKDSTYSLSSTLTLSKADYEKHKVYACEVTHQGLSSPVTKSFNRGEC
VH: QLVQSGGGVVQPGRSLRLSCKASGYTFTRYTMHWVRQAPGKGLEWIGYINPSRGYTNYNQKVKDRFTISTDKSKSTAFLQMDSLRPEDTAVYYCARYYDDHYCLDYWGQGTPVTV
VL: DIQMTQSPSSLSASVGDRVTITCSASSSVSYMNWYQQTPGKAPKRWIYDTSKLASGVPSRFSGSGSGTDYTFTISSLQPEDIATYYCQQWSSNPFTFGQGTKLQITR
modifications: one PEG5-N3 per light chain; reduced cysteines of the heavy chain alkylated with bromoacetamide-PEG5-N3, an average of 3 PEG5-N3/heavy chain; one DBCO/light chain (bromoacetamido-DBCO on reduced cysteine); reduced cysteines alkylated with bromoacetamido-DBCO, an average of 3 DBCO/heavy chain; clicked to PEG5-N3 on huOKT3
